B1: human hemoglobin, heme-loaded (holo-Hb) (complex)
chain 1: not shown
chain 2: not shown
B2: Shr^H2 M238A (domain or fragment)
chain: NLSLITKLSQEDGAILFPEIDRYSDNKQIKALTQQITKVTVNGTVYKDLISDSVKDTNGWVSNATGLHLGTKAFKDGENTIVISSKGFEDVTITVTKKDGQIHFVSAKQKQ

Experiments:
[1] = target: T1, Shr^H1H2 (Shr residues S26 to Q285, both HIDs) (Streptococcus pyogenes, UniProt Q99YA0 26-285); assay: SEC-MALS + other: SEC-SAXS
T1 sequence: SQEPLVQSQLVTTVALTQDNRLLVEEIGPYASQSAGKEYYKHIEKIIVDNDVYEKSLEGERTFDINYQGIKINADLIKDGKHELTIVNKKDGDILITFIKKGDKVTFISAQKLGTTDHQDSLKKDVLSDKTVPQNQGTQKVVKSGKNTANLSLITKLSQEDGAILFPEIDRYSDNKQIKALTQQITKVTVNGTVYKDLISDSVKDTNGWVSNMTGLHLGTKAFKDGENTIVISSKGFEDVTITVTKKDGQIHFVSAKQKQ

[2] = target: B1; assay: NMR titration

Question: B1 was tested. Which “stoichiometry N” value [1] did it give?
Answer: Its value is 2 Shr^H1H2 per Hb tetramer.

Question: Does B2 bind [2]?
Answer: Result: binds

Reference: article PMC9945957 (Proceedings of the National Academy of Sciences of the …, 2023)
